Results on 14 molecules are retold here after patent US20200024322A1 (Eli Lilly, published 2020).

Where a chain is given by its changes, count along the chain named. Numbered stars: 1 amine (or outer) side, 2 acyl side, 3 side chain; on linkers, the order of the positions; unused ones are H or OH. Square brackets hold non-standard residues; d marks the D form. Side chains are listed from the residue outwards. Ends that are not written are not given here. * marks the point of attachment. C20 diacid = O=C(O)CCCCCCCCCCCCCCCCCCC(=O)*; γGlu = O=C(O)[C@H](CCC(=O)[*:2])N[*:1]; AEEA = NCCOCCOCC(=O)O; Aib = CC(C)(N)C(=O)O

Sequences and labels used below:
T1: human GIP receptor (human, UniProt P48546 22-466)
T1 construct: whole, on cells; Used as crude membranes of stably transfected CHO cells; also called hGIPR
T1 sequence (looked up): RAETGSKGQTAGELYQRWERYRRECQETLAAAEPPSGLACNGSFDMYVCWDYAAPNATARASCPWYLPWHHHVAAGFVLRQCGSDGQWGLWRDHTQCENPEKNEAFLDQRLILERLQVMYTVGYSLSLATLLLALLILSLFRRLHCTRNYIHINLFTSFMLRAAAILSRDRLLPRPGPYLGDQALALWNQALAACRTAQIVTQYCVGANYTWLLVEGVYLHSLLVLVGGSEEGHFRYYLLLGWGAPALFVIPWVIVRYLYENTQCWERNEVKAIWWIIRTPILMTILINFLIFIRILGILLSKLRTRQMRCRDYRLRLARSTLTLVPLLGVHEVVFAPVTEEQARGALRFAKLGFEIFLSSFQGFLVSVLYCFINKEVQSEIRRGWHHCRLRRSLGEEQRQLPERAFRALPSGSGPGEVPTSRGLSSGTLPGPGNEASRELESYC

B1: Example 14 (peptide)
peptide: Y[Aib]EGTFTSDYSILLDKIAQK([AEEA-AEEA-γGlu-C20 diacid])EFIQYLLE[Aib]GPSSGAPPPS-NH2
modifications: N-terminus assumed
SMILES: CC[C@H](C)[C@H](NC(=O)[C@H](CCCCN)NC(=O)[C@H](CC(=O)O)NC(=O)[C@H](CC(C)C)NC(=O)[C@H](CC(C)C)NC(=O)[C@@H](NC(=O)[C@H](CO)NC(=O)[C@H](Cc1ccc(O)cc1)NC(=O)[C@H](CC(=O)O)NC(=O)[C@H](CO)NC(=O)[C@@H](NC(=O)[C@H](Cc1ccccc1)NC(=O)[C@@H](NC(=O)CNC(=O)[C@H](CCC(=O)O)NC(=O)C(C)(C)NC(=O)[C@@H](N)Cc1ccc(O)cc1)[C@@H](C)O)[C@@H](C)O)[C@@H](C)CC)C(=O)N[C@@H](C)C(=O)N[C@@H](CCC(N)=O)C(=O)N[C@@H](CCCCNC(=O)COCCOCCNC(=O)COCCOCCNC(=O)CC[C@H](NC(=O)CCCCCCCCCCCCCCCCCCC(=O)O)C(=O)O)C(=O)N[C@@H](CCC(=O)O)C(=O)N[C@@H](Cc1ccccc1)C(=O)N[C@H](C(=O)N[C@@H](CCC(N)=O)C(=O)N[C@@H](Cc1ccc(O)cc1)C(=O)N[C@@H](CC(C)C)C(=O)N[C@@H](CC(C)C)C(=O)N[C@@H](CCC(=O)O)C(=O)NC(C)(C)C(=O)NCC(=O)N1CCC[C@H]1C(=O)N[C@@H](CO)C(=O)N[C@@H](CO)C(=O)NCC(=O)N[C@@H](C)C(=O)N1CCC[C@H]1C(=O)N1CCC[C@H]1C(=O)N1CCC[C@H]1C(=O)N[C@@H](CO)C(N)=O)[C@@H](C)CC
B2: Example 12 (peptide)
peptide: Y[Aib]EGTFTSDYSILLDKIAQK([AEEA-AEEA-γGlu-C20 diacid])AFIEYLIEGGPSSGAPPPS-NH2
modifications: N-terminus assumed
SMILES: CC[C@H](C)[C@H](NC(=O)[C@H](CCCCN)NC(=O)[C@H](CC(=O)O)NC(=O)[C@H](CC(C)C)NC(=O)[C@H](CC(C)C)NC(=O)[C@@H](NC(=O)[C@H](CO)NC(=O)[C@H](Cc1ccc(O)cc1)NC(=O)[C@H](CC(=O)O)NC(=O)[C@H](CO)NC(=O)[C@@H](NC(=O)[C@H](Cc1ccccc1)NC(=O)[C@@H](NC(=O)CNC(=O)[C@H](CCC(=O)O)NC(=O)C(C)(C)NC(=O)[C@@H](N)Cc1ccc(O)cc1)[C@@H](C)O)[C@@H](C)O)[C@@H](C)CC)C(=O)N[C@@H](C)C(=O)N[C@@H](CCC(N)=O)C(=O)N[C@@H](CCCCNC(=O)COCCOCCNC(=O)COCCOCCNC(=O)CC[C@H](NC(=O)CCCCCCCCCCCCCCCCCCC(=O)O)C(=O)O)C(=O)N[C@@H](C)C(=O)N[C@@H](Cc1ccccc1)C(=O)N[C@H](C(=O)N[C@@H](CCC(=O)O)C(=O)N[C@@H](Cc1ccc(O)cc1)C(=O)N[C@@H](CC(C)C)C(=O)N[C@H](C(=O)N[C@@H](CCC(=O)O)C(=O)NCC(=O)NCC(=O)N1CCC[C@H]1C(=O)N[C@@H](CO)C(=O)N[C@@H](CO)C(=O)NCC(=O)N[C@@H](C)C(=O)N1CCC[C@H]1C(=O)N1CCC[C@H]1C(=O)N1CCC[C@H]1C(=O)N[C@@H](CO)C(N)=O)[C@@H](C)CC)[C@@H](C)CC
B3: Example 157 (peptide)
peptide: YXEGTXTSDXSIXLDEKAQXEFIEYLIEGGPSSGAPPPS
modifications: Aib2; αMeF(2F)6; 3Pal10; αMeL13; K17((2-[2-(2-Amino-ethoxy)-ethoxy]-acetyl)2-(γ-Glu)-CO-(CH2)18-CO2H); Aib20; C-terminal NH2
B4: Example 206 (peptide)
peptide: B3 peptide with E24X
modifications: Aib2; αMeF(2F)6; 4Pal10; αMeL13; K17((2-[2-(2-Amino-ethoxy)-ethoxy]-acetyl)2-CO-(CH2)18-CO2H); Aib20; D-Glu24; C-terminal NH2
B5: Example 181 (peptide)
peptide: B3 peptide with E24X
modifications: not printed (the compound name of this Example is missing from the table of Examples 6-287)
B6: Example 207 (peptide)
peptide: B3 peptide with E24X
modifications: Aib2; αMeF(2F)6; 4Pal10; αMeL13; K17((2-[2-(2-Amino-ethoxy)-ethoxy]-acetyl)2-(εK)-CO-(CH2)18-CO2H); Aib20; D-Glu24; C-terminal NH2
B7: Example 158 (peptide)
peptide: B3 peptide
modifications: Aib2; αMeF(2F)6; 4Pal10; αMeL13; K17((2-[2-(2-Amino-ethoxy)-ethoxy]-acetyl)2-(γ-Glu)-CO-(CH2)18-CO2H); Aib20; C-terminal NH2
B8: Example 205 (peptide)
peptide: B3 peptide with E24X
modifications: Aib2; αMeF(2F)6; 4Pal10; αMeL13; K17((2-[2-(2-Amino-ethoxy)-ethoxy]-acetyl)2-CO-(CH2)16-CO2H); Aib20; D-Glu24; C-terminal NH2
B9: Example 189 (peptide)
peptide: B3 peptide with E24X
modifications: Aib2; αMeF(2F)6; 4Pal10; αMeL13; K17((2-[2-(2-Amino-ethoxy)-ethoxy]-acetyl)2-(γ-Glu)-CO-(CH2)18-CO2H); Aib20; Aib24; C-terminal NH2
B10: Example 182 (peptide)
peptide: B3 peptide with E24X
modifications: not printed (the compound name of this Example is missing from the table of Examples 6-287)
B11: Example 202 (peptide)
peptide: B3 peptide with E16K, E24X
modifications: Aib2; αMeF(2F)6; 4Pal10; αMeL13; K17((2-[2-(2-Amino-ethoxy)-ethoxy]-acetyl)-(γ-Glu)-(2-[2-(2-Amino-ethoxy)-ethoxy]-acetyl)-CO-(CH2)18-CO2H); Aib20; D-Glu24; C-terminal NH2
B12: Example 203 (peptide)
peptide: B3 peptide with E16K, E24X
modifications: Aib2; αMeF(2F)6; 4Pal10; αMeL13; K17((2-[2-(2-Amino-ethoxy)-ethoxy]-acetyl)2-(γ-Glu)-CO-(CH2)18-CO2H); Aib20; D-Glu24; C-terminal NH2
B13: Example 10 (peptide)
peptide: Y[Aib]EGTFTSDYSILLDSIAQ[Aib]AFIK([AEEA-AEEA-γGlu-C20 diacid])YLLA[Aib]GPSSGAPPPS-NH2
modifications: N-terminus assumed
SMILES: CC[C@H](C)[C@H](NC(=O)[C@H](CO)NC(=O)[C@H](CC(=O)O)NC(=O)[C@H](CC(C)C)NC(=O)[C@H](CC(C)C)NC(=O)[C@@H](NC(=O)[C@H](CO)NC(=O)[C@H](Cc1ccc(O)cc1)NC(=O)[C@H](CC(=O)O)NC(=O)[C@H](CO)NC(=O)[C@@H](NC(=O)[C@H](Cc1ccccc1)NC(=O)[C@@H](NC(=O)CNC(=O)[C@H](CCC(=O)O)NC(=O)C(C)(C)NC(=O)[C@@H](N)Cc1ccc(O)cc1)[C@@H](C)O)[C@@H](C)O)[C@@H](C)CC)C(=O)N[C@@H](C)C(=O)N[C@@H](CCC(N)=O)C(=O)NC(C)(C)C(=O)N[C@@H](C)C(=O)N[C@@H](Cc1ccccc1)C(=O)N[C@H](C(=O)N[C@@H](CCCCNC(=O)COCCOCCNC(=O)COCCOCCNC(=O)CC[C@H](NC(=O)CCCCCCCCCCCCCCCCCCC(=O)O)C(=O)O)C(=O)N[C@@H](Cc1ccc(O)cc1)C(=O)N[C@@H](CC(C)C)C(=O)N[C@@H](CC(C)C)C(=O)N[C@@H](C)C(=O)NC(C)(C)C(=O)NCC(=O)N1CCC[C@H]1C(=O)N[C@@H](CO)C(=O)N[C@@H](CO)C(=O)NCC(=O)N[C@@H](C)C(=O)N1CCC[C@H]1C(=O)N1CCC[C@H]1C(=O)N1CCC[C@H]1C(=O)N[C@@H](CO)C(N)=O)[C@@H](C)CC
B14: Example 11 (peptide)
peptide: Y[Aib]EGTFTSDYSILLDSIAQ[Aib]AFIEYLLK([AEEA-AEEA-γGlu-C20 diacid])[Aib]GPSSGAPPPS-NH2
modifications: N-terminus assumed
SMILES: CC[C@H](C)[C@H](NC(=O)[C@H](CO)NC(=O)[C@H](CC(=O)O)NC(=O)[C@H](CC(C)C)NC(=O)[C@H](CC(C)C)NC(=O)[C@@H](NC(=O)[C@H](CO)NC(=O)[C@H](Cc1ccc(O)cc1)NC(=O)[C@H](CC(=O)O)NC(=O)[C@H](CO)NC(=O)[C@@H](NC(=O)[C@H](Cc1ccccc1)NC(=O)[C@@H](NC(=O)CNC(=O)[C@H](CCC(=O)O)NC(=O)C(C)(C)NC(=O)[C@@H](N)Cc1ccc(O)cc1)[C@@H](C)O)[C@@H](C)O)[C@@H](C)CC)C(=O)N[C@@H](C)C(=O)N[C@@H](CCC(N)=O)C(=O)NC(C)(C)C(=O)N[C@@H](C)C(=O)N[C@@H](Cc1ccccc1)C(=O)N[C@H](C(=O)N[C@@H](CCC(=O)O)C(=O)N[C@@H](Cc1ccc(O)cc1)C(=O)N[C@@H](CC(C)C)C(=O)N[C@@H](CC(C)C)C(=O)N[C@@H](CCCCNC(=O)COCCOCCNC(=O)COCCOCCNC(=O)CC[C@H](NC(=O)CCCCCCCCCCCCCCCCCCC(=O)O)C(=O)O)C(=O)NC(C)(C)C(=O)NCC(=O)N1CCC[C@H]1C(=O)N[C@@H](CO)C(=O)N[C@@H](CO)C(=O)NCC(=O)N[C@@H](C)C(=O)N1CCC[C@H]1C(=O)N1CCC[C@H]1C(=O)N1CCC[C@H]1C(=O)N[C@@H](CO)C(N)=O)[C@@H](C)CC

For one experiment, the target named is T2, human GLP-1 receptor (human, UniProt P43220 24-463).
T2 construct: whole, on cells; Used as crude membranes of stably transfected HEK293 cells; also called hGLP1R; hGLP-1R
The experiment can be described thus: SPA, [125I]-GLP-1 displacement, hGLP-1R membranes.
By Ki is commonly meant the dissociation constant of the complex between target and ligand, obtained from inhibition or displacement. As to B1, the Ki is 29.6 nM. In other words, the double-digit nanomolar range.
Still for that read-out and setting: to B2 belongs 12.9 nM; to B3, 8.97 nM; to B4, 5.27 nM.
On the same count and under the same terms, the value for B5 was 7.28 nM; that for B6 was 1.37 nM.
The same measure, in the same setting: to B7 belongs 11.8 nM.
B8 returned a Ki of 3.05 nM. Compared with the last molecule, the Ki is about 3.9-fold lower.
With B9, the affinity, expressed as Ki, was 8.81 nM.
B10 registered a Ki of 4.64 nM.
Regarding B11, the Ki was found to be 5.38 nM.
In turn, B12 had a Ki of 3.9 nM.
Take B13: the Ki was found to be 9.33 nM.
Same read-out and setting: to B14 belongs 15.7 nM.

For the next experiment, the target named is T3, human glucagon receptor (human, UniProt P47871 26-477).
T3 construct: whole, on cells; Used as crude membranes of stably transfected HEK293 cells; also called hGcgR; hGLcgR
T3 sequence (P47871 26-477): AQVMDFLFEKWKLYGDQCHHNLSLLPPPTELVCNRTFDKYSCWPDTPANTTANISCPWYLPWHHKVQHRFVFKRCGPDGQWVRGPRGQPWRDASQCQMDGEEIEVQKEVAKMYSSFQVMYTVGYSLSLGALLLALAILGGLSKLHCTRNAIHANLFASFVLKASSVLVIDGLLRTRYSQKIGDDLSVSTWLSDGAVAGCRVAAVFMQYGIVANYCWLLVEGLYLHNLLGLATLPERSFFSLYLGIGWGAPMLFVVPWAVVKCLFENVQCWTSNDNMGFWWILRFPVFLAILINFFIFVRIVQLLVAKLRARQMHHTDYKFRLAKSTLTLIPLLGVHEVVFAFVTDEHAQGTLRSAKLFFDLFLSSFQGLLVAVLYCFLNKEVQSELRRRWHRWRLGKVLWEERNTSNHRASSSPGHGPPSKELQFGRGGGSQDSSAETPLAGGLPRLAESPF
Kind of experiment: SPA, [125I]-Gcg displacement, hGcgR membranes.
B1 showed a Ki of 160 nM.
For the molecule B2, the Ki was 684 nM.
As to B3, the Ki came out at 179 nM.
B4: the affinity corresponds to a Ki of 176 nM.
The molecule B5 yielded a Ki of 413 nM.
B6 came in with a Ki of 74.2 nM.
On the same count and under the same terms, to B7 belongs 285 nM; to B8, 438 nM.
As to B9, the Ki amounted to 146 nM.
As for B10, the Ki was 565 nM.
Consider B11, for which the affinity, expressed as Ki, was 394 nM.
Same read-out and setting: the value for B12 was 845 nM; that for B13 was 226 nM; that for B14 was 174 nM.

Another experiment has as its target T1, human GIP receptor. Kind of experiment: SPA, [125I]-GIP displacement, hGIPR membranes.
In turn, B1 came in with an inhibition constant Ki of 0.0494 nM.
B2 showed a Ki of 0.167 nM. Compared with the last molecule, the Ki is about 3.4-fold higher.
Molecule B3 came in with a Ki of 0.0937 nM.
Consider B4, for which the Ki was determined as 0.0814 nM.
The same measure, in the same setting: to B5 belongs 0.145 nM; to B6, 0.0786 nM.
On to B7, for which the Ki is 0.114 nM. The Ki values of the last two molecules are within 1.5-fold of each other.
Still for that read-out and setting: to B8 belongs 0.0367 nM.
For B9, affinity was put at a Ki of 0.128 nM. Against the preceding molecule, the Ki is about 3.5-fold higher.
The same measure, in the same setting: to B10 belongs 0.0669 nM.
Same read-out and setting: the value for B11 was 0.0579 nM.
The same measure, in the same setting: to B12 belongs 0.0337 nM; to B13, 0.109 nM; to B14, 0.226 nM.
